Data: patent publication US20150037339A1 (Regeneron, published 2015)

T1: Activin AC (human, UniProt P55103 237-352)
T1 construct: Heterodimer of one betaA and one betaC subunit; bought (R&D Systems #4879-AC)
T1 sequence 1: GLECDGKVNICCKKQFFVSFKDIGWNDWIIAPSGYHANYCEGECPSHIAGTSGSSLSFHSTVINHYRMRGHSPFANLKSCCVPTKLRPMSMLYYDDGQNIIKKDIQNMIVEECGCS
T1 sequence 2: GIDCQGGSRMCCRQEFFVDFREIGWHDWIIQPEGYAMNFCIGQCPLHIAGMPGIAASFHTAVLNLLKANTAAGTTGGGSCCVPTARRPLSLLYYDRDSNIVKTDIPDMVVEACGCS

T2: Activin AB (human, UniProt P08476 311-426; P09529 293-407)
T2 chain 1: T1 sequence 1
T2 chain 2: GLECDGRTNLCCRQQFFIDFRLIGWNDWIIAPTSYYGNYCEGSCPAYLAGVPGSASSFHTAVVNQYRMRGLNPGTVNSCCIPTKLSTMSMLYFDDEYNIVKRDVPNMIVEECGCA

T3: Activin A (human, UniProt P08476 311-426)
T3 sequence: T1 sequence 1

T4: hBMP6 (human, UniProt P22004 382-513, limits assumed)
T4 construct: Bought protein
T4 sequence (looked up): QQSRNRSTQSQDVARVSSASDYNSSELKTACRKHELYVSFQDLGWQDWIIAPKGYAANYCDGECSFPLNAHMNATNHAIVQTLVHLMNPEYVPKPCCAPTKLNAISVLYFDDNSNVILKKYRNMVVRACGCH

T5: hBMP9 (human, UniProt Q9UK05 320-429)
T5 construct: Bought protein
T5 sequence (looked up): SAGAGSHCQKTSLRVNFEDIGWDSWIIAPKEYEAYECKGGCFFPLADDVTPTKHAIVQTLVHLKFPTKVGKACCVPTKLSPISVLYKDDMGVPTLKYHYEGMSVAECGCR

T6: hBMP7 (human, UniProt P18075 293-431)
T6 construct: Bought protein
T6 sequence (looked up): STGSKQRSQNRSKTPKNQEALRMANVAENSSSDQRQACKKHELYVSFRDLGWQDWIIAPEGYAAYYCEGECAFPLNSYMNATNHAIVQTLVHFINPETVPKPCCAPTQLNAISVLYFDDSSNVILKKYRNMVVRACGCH

T7: Activin B (human, UniProt P09529 293-407)
T7 construct: Homodimer of two betaB subunits; bought (R&D Systems #659-AB)
T7 chain: T2 chain 2

T8: hBMP4 (human, UniProt P12644 293-408)
T8 construct: Bought protein
T8 sequence (looked up): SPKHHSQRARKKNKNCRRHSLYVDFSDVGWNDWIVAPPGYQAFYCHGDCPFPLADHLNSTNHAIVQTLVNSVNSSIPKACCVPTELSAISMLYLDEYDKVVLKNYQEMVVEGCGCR

T9: hBMP10 (human, UniProt O95393 317-424)
T9 construct: Bought protein
T9 sequence (looked up): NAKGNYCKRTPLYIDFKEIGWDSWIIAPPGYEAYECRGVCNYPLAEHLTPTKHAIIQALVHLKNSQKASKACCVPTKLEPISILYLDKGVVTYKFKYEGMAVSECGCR

B1: H4H10430P (antibody, human IgG4, V domains shown)
VH: EVQLVESGGGLVQPGRSLRLSCKASGFAFDDFAMHWVRQAPGKGLEWVSGIVWNSGDIGYADSVKGRFTISRDNAKNSLYLQLNSLRTEDTALYFCVKDMVRGLMGFNYYGMDVWGQGTTVTVSS
VL: EIVLTQSPATLSLSPGERATLSCRASQTISTYLVWYRQRPGQAPSLLIYDASNRATDIPARFSGSGSGTDFTLTISSLEPEDFAVYYCQQRSNWPITFGQGTRLEIK
B2: H4H10442P2 (antibody, human IgG4, V domains shown)
VH: QVQLQESGPGLVKPSETLSITCTVSGGSFSSHFWTWIRQPPGKGLEWIGYLHYSGGTSYNPSLKSRVIISVDTSKNQFSLKLNSVTAADTAVYYCARARSGITFGGLIVPGSFDIWGQGTMVTVSS
VL: not shown

Key:
Activin AC [1] = target: T1, Activin AC; test: SPR (Biacore), mAb captured on anti-Fc, Activin AC injected, 37 C
Method in brief: (§1)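 240 s association, 600 s buffer dissociation; ka, kd fitted; KD (M) = kd/ka; t1/2 (min) = ln2/(60*kd).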

Activin AB [2] = target: T2, Activin AB; test: cell-based or functional assay
Activin A [3] = target: T3, Activin A; test: cell-based or functional assay
Activin AC [4] = target: T1, Activin AC; test: cell-based or functional assay
Activin AB [5] = target: T2, Activin AB; test: SPR (Biacore), mAb captured on anti-Fc, Activin AB injected, 25 C
Method in brief: as §1

Activin AC [6] = target: T1, Activin AC; test: SPR (Biacore), mAb captured on anti-Fc, Activin AC injected, 25 C
Method in brief: as §1

Activin AB [7] = target: T2, Activin AB; test: SPR (Biacore), mAb captured on anti-Fc, Activin AB injected, 37 C
Method in brief: as §1

hBMP6 = target: T4, hBMP6; test: SPR (Biacore 4000), captured on anti-human Fc, 200 nM ligand injected, 37 C
Experimental: (§2) For the binding experiment, a Biacore 4000 instrument was used. […] All Biacore binding studies were performed in HBS-T running buffer (0.01 M HEPES pH 7.4, 0.5 M NaCl, 3 mM EDTA, 0.5 mg/ml bovine serum albumin, 0.05% v/v Surfactant P20). […] All binding measurements were performed at 37° C. […] Over the captured antibody surface was injected the TGF-beta family ligands through concentrations ranging from 3.1 nM to 200 nM.

hBMP9 = target: T5, hBMP9; test: as above
Experimental: as §2

hBMP7 = target: T6, hBMP7; test: as above
Experimental: as §2

Activin B = target: T7, Activin B; test: as above
Experimental: as §2

hBMP4 = target: T8, hBMP4; test: as above
Experimental: as §2

Activin AB [8] = target: T2, Activin AB; test: as above
Experimental: as §2

Activin A [9] = target: T3, Activin A; test: as above
Experimental: as §2

Activin AC [10] = target: T1, Activin AC; test: as above
Experimental: as §2

hBMP10 = target: T9, hBMP10; test: as above
Experimental: as §2

GDF8 = target: T10, GDF8 (human, UniProt O14793 267-375); test: as above
T10 construct: Bought (R&D Systems #788-G8); also called hGDF8; growth and differentiation factor-8
Experimental: as §2

hBMP2 = target: T11, hBMP2 (human, UniProt P12643 283-396); test: as above
T11 construct: Bought protein; also called BPM2
T11 sequence (P12643 283-396 limits assumed): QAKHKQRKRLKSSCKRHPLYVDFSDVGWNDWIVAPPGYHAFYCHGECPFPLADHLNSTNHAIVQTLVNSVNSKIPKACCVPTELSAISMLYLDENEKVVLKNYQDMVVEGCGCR
Experimental: as §2

GDF11 = target: T12, GDF11 (human, UniProt O95390 299-407); test: as above
T12 construct: Bought protein; also called hGDF11
T12 sequence (O95390 299-407 limits assumed): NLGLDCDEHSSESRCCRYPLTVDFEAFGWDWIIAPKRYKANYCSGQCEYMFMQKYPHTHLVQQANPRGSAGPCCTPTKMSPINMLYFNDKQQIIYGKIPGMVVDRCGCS
Experimental: as §2

| Binder | 50 nM Ag Bound (RU) (Activin AC [1]) | Kd (Activin AC [1]) [nM] | koff (Activin AC [1]) [s⁻¹] | kon (Activin AC [1]) [M⁻¹ s⁻¹] | t1/2 (Activin AC [1]) [min] | IC50 [M], inhibition of 30 pM Activin AB in A204/CAGAx12-Luc Smad2/3-luciferase bioassay (Activin AB [2]) [M] | IC50 [M], inhibition of 100 pM Activin A in A204/CAGAx12-Luc Smad2/3-luciferase bioassay (Activin A [3]) [M] | IC50 [M], inhibition of 4 nM Activin AC in A204/CAGAx12-Luc Smad2/3-luciferase bioassay (Activin AC [4]) [M] | 50 nM Ag Bound (RU) (Activin AB [5]) | Kd (Activin AB [5]) [nM] | koff (Activin AB [5]) [s⁻¹] | kon (Activin AB [5]) [M⁻¹ s⁻¹] | t1/2 (Activin AB [5]) [min] | 50 nM Ag Bound (RU) (Activin AC [6]) | Kd (Activin AC [6]) [nM] | koff (Activin AC [6]) [s⁻¹] | kon (Activin AC [6]) [M⁻¹ s⁻¹] | t1/2 (Activin AC [6]) [min] | 50 nM Ag Bound (RU) (Activin AB [7]) | Kd (Activin AB [7]) [nM] | other results |
| --- | --- | --- | --- | --- | --- | --- | --- | --- | --- | --- | --- | --- | --- | --- | --- | --- | --- | --- | --- | --- | --- |
| B1 | 25.3 | 16.7 | 0.02 | 1.2e+06 | 0.6 | 1e-10 | 6.1e-11 | 9.3e-10 | 33 | 0.0185 | 0.000217 | 1.17e+07 | 53.3 | 23.6 | 8.86 | 0.0109 | 1.23e+06 | 1.1 | 41 | 0.0535 | koff (Activin AB [7]): 0.000541 s⁻¹; kon (Activin AB [7]): 1.01e+07 M⁻¹ s⁻¹; t1/2 (Activin AB [7]): 21.3 min; binding response (resonance units) for 200 nM ligand (hBMP6): 5.7 RU; binding response (resonance units) for 200 nM ligand (hBMP9): -0.6 RU; binding response (resonance units) for 200 nM ligand (hBMP7): 6.4 RU; binding response (resonance units) for 200 nM ligand (Activin B): 0.4 RU; binding response (resonance units) for 200 nM ligand (hBMP4): -0.6 RU; binding response (resonance units) for 200 nM ligand (Activin AB [8]): 95 RU; binding response (resonance units) for 200 nM ligand (Activin A [9]): 69.1 RU; binding response (resonance units) for 200 nM ligand (Activin AC [10]): 34.8 RU; binding response (resonance units) for 200 nM ligand (hBMP10): 0.3 RU; binding response (resonance units) for 200 nM ligand (GDF8): -0.1 RU; binding response (resonance units) for 200 nM ligand (hBMP2): -1.7 RU; binding response (resonance units) for 200 nM ligand (GDF11): 3 RU |
| B2 | 21.4 | 4.1 | 0.00599 | 1.46e+06 | 1.9 | 2.2e-09 | 5.6e-11 | 6.5e-09 | 34.6 | 0.32 | 0.00177 | 5.53e+06 | 6.5 | 18.6 | 1.57 | 0.00205 | 1.31e+06 | 5.6 | 45.9 | 0.464 | koff (Activin AB [7]): 0.00425 s⁻¹; kon (Activin AB [7]): 9.17e+06 M⁻¹ s⁻¹; t1/2 (Activin AB [7]): 2.7 min; binding response (resonance units) for 200 nM ligand (hBMP6): 1.1 RU; binding response (resonance units) for 200 nM ligand (hBMP9): 0 RU; binding response (resonance units) for 200 nM ligand (hBMP7): 1.5 RU; binding response (resonance units) for 200 nM ligand (Activin B): -1.8 RU; binding response (resonance units) for 200 nM ligand (hBMP4): -0.7 RU; binding response (resonance units) for 200 nM ligand (Activin AB [8]): 65.2 RU; binding response (resonance units) for 200 nM ligand (Activin A [9]): 63.9 RU; binding response (resonance units) for 200 nM ligand (Activin AC [10]): 14.2 RU; binding response (resonance units) for 200 nM ligand (hBMP10): -0.7 RU; binding response (resonance units) for 200 nM ligand (GDF8): 0.5 RU; binding response (resonance units) for 200 nM ligand (hBMP2): -2.3 RU; binding response (resonance units) for 200 nM ligand (GDF11): 1 RU |
